Test results: paper PMC9959916, “A Highly Conserved Region in BRCA2 Suppresses the RAD51-Interaction Activity of BRC Repeats” (Veterinary Sciences, 2023)
Positions count from the first letter of the chain named.

T1: Gal4 DNA-binding domain-fused cBRC1-HCR-BRC2 A1108G (canine (Canis lupus familiaris), UniProt Q8MKI9 993-1248, A1108G)
T1 construct: canine BRCA2, residues 993-1248 with A1108G, a mutation reported in a canine mammary tumor; source: HeLa, transiently transfected, mammalian two-hybrid fusion
T1 sequence (looked up): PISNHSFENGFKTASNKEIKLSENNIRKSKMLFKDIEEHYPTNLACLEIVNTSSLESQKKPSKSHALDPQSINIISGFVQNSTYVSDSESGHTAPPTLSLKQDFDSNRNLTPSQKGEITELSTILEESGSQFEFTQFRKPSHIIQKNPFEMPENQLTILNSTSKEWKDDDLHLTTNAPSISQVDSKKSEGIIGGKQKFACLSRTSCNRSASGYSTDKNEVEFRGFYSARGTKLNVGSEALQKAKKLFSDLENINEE

T2: FLAG-HA-NLS-fused cBRC1-HCR-BRC2 A1108G (canine (Canis lupus familiaris), UniProt Q8MKI9 993-1248, A1108G)
T2 construct: canine BRCA2, residues 993-1248 with A1108G, a mutation reported in a canine mammary tumor; Very low expression; also called A1108G mutant; source: HeLa, stably expressing, in lysate
T2 sequence (looked up): T1 sequence (looked up)

B1: FLAG-HA-NLS-fused cBRC1-ΔHCR-BRC2 (canine BRCA2 993–1248 aa deleted with 1101–1133 aa) (domain or fragment, canine (Canis lupus familiaris), UniProt Q8MKI9 993-1248, looked up)
chain: PISNHSFENGFKTASNKEIKLSENNIRKSKMLFKDIEEHYPTNLACLEIVNTSSLESQKKPSKSHALDPQSINIISGFVQNSTYVSDSESGHTAPPTLSLKQDFDSNRHIIQKNPFEMPENQLTILNSTSKEWKDDDLHLTTNAPSISQVDSKKSEGIIGGKQKFACLSRTSCNRSASGYSTDKNEVEFRGFYSARGTKLNVGSEALQKAKKLFSDLENINEE
notes: canine BRCA2, residues 993-1248 with the HCR (1101-1133) deleted; also called HCR-deleted peptide; source: HeLa, stably expressing, in lysate
B2: VP16-fused canine RAD51 (natural protein, UniProt Q8MKI8 1-339, looked up)
chain: MAMQMQLEANADTSVEEESFGPQPISRLEQCGINANDVKKLEEAGFHTVEAVAYAPKKELISIKGISEAKADKILTEAAKLVPMGFTTATEFHQRRSEIIQITTGSKELDKLLQGGIETGSITEMFGEFRTGKTQICHTLAVTCQLPIDRGGGEGKAMYIDTEGTFRPERLLAVAERYGLSGSDVLDNVAYARGFNTDHQTQLLYQASAMMVESRYALLIVDSATALYRTDYSGRGELSARQMHLARFLRMLLRLADEFGVAVVITNQVVAQVDGAAMFAADPKKPIGGNIIAHASTTRLYLRKGRGETRICKIYDSPCLPEAEAMFAINADGVGDAKD
notes: canine RAD51, cloned into the pVP16 vector; also called pVP16-RAD51; source: HeLa, transiently transfected, mammalian two-hybrid fusion
B3: endogenous RAD51 (HeLa cells) (natural protein, human (endogenous in HeLa), UniProt Q06609 1-339, looked up)
chain: B2 chain with S62N, T76A, G194A
notes: RAD51 recombinase, endogenous in HeLa cells; source: endogenous, HeLa lysate

Columns and labels:
Settings in all cases: partners not purified
[1] = target: B3; test: co-IP; lysates of HeLa cells stably expressing FLAG-HA-NLS-fused canine BRCA2 peptides; 3 μg anti-RAD51 at 4 °C overnight, Protein G Dynabeads; peptides detected with anti-FLAG
[2] = target: T1, Gal4 DNA-binding domain-fused …; test: two-hybrid; mammalian two-hybrid in HeLa cells: pM (Gal4 DNA-binding domain)-BRCA2 peptide, pVP16-canine RAD51, pG5-Luc firefly luciferase reporter, normalised to Renilla (pRL-TK); read two days after transfection
[3] = target: T2, FLAG-HA-NLS-fused cBRC1-HCR-BRC2 A1108G; test: co-IP; lysates of HeLa cells stably expressing FLAG-HA-NLS-fused canine BRCA2 peptides, Benzonase-treated; FLAG M2 affinity agarose at 4 °C overnight; washed with 20 mM Tris-HCl pH 8.0, 150 mM KCl, 2 mM MgCl2, 10% glycerol; blots for endogenous RAD51 and PP2A-C subunit

Binder: B1
fold change against cBRC1-HCR-BRC2 [1]: ~1.5 fold

Binder: B2
fold change against the wild-type peptide [2]: 1.5 fold

Binder: B3
fold change against the wild-type peptide [3]: 48 fold
